The text below walks through data of patent US8926955B2, “Synthesis of polymer conjugates of indolocarbazole compounds” (priority 2008, dated 2015).

Data set [1] in a line: Toxicokinetics (plasma levels) in 13 week dermal rat study.
Method: The purpose of this study was to evaluate the toxicity of the test item in rats after daily dermal administration (6 hours exposure) over a period of 13 weeks and to investigate possible recovery from any potential treatment-related effects over a period of 4 consecutive weeks. The toxicokinetic profile was also evaluated.
Three groups, each of 10 male and 10 female Sprague Dawley rats (cf. Table 1: male numbered with even numbers, female numbered with uneven numbers) received the test item by dermal application at dosages of 0.5, 2.5 and 5 mg/kg/day for 13 consecutive weeks (Table 1: group numbers 2-4). A fourth similarly constituted group received the vehicle alone (purified water) and acted as a control (Table 1: group number 1). Five additional animals for each sex were included in the high and control groups (Table 1: group numbers 4 and 1, respectively) for recovery assessment. In addition, 3 satellite groups for toxicokinetics, including 9 males and 9 females (Table 2: group numbers 5-8, respectively), and 1 control group, including 3 males and 3 females (Table 2: group number 5), were treated as the main groups for toxicokinetic evaluations.
For data set [2], the system named is New Zealand White Specific Pathogen Free (SPF) rabbits. Put plainly: 13 week dermal toxicity study in rabbits with 4 week recovery.
Method: Three groups, each of 6 male and 6 female New Zealand White Specific Pathogen Free (SPF) rabbits (cf. Table 3: male numbered with even numbers, female numbered with uneven numbers), received the test item by dermal application at dosages of 0.5, 2.5 and 5 mg/animal/day for 13 consecutive weeks (Table 3, group numbers 2-4, respectively). A fourth similarly constituted group received the vehicle alone (purified water) and acted as a control (Table 3, group number 1). Control and high dose groups (Table 3, group numbers 4 and 1, respectively). included 3 additional animals per sex for recovery assessment.
The following investigations were performed: daily clinical signs, body weight, food consumption, macroscopic observations of the treatment sites, clinical pathology investigations, terminal body weight, organ weight, post mortem macroscopic observations and histopathological examination.
The treatment sites were examined, each day, approximately 3 hours after the start of dosing. Irritation of the sites, when compared to the adjacent untreated skin, was assigned a numerical value according to the table below:
A further data set concerns the target TrkA (Homo sapiens, UniProt P04629). Put plainly: Off-chip Mobility Shift Assay, IC50 against TrkA kinase. Type of data set: biochemical. The settings on record: ATP 75 μM, CSKtide 1000 nM. As to the method:
The test compound was dissolved in dimethylsulfoxide (DMSO) and then the solution was further 25-fold diluted with assay buffer to make the final test compound solution. The conjugate was tested at the following concentrations: 30000 nM, 10000 nM, 3000 nM, 1000 nM, 300 nM, 100 nM, 30 nM, 10 nM, 3 nM and 1 nM.
The assay procedure is represented by an Off-chip Mobility Shift Assay (MSA) and is reported below:
IC50 value was calculated from concentration vs. % inhibition curves by fitting to a four parameter logistic curve.

In another data set the test system is rat. Put plainly: Acute dermal toxicity study in rats. The data set is classed as in vivo. As for the experimental part: The acute toxicity of the conjugate of Example 3 was investigated following administration of a single dermal dose to the rat.
A single dose of 2000 mg/kg was administered to a group of 5 male and 5 female animals for a 24 hour period. The day before scheduled dosing the fur was removed from the dorsal surfaces of the trunk over an estimated area of 10% of the total body surface. Care was taken to avoid any damage or abrasion to the skin. The test item was administered topically at a dose volume of 4 ml/kg body weight, just after its preparation. The required aliquot of the formulated test item was spread evenly over a gauze measuring 2.5×2.5 cm. The gauze patch was then placed onto the animal's skin, with the test item in direct contact with the skin. A strip of synthetic film was placed over the treated site and the whole assembly held in place by encircling the trunk of the animal with a length of elastic adhesive bandage. After a period of 24 hours, the tape dressing will be removed. The treated skin site was then gently washed free of any remaining test item using lukewarm water. Throughout the study, all animals will be checked twice daily. Animals were examined for signs of reaction to treatment on dosing, approximately 30 min, 2 and 4 hours after dosing on day 1, then daily for a total of 14 days. Each animal was weighed on the day of allocation to the study, on the day of dosing (day 1) and on days 8 and 15. After a 14 day period all animals were killed and subjected to a necropsy examination.

[3] abbreviates: 0.5, 2.5 and 5 mg/animal/day dermal, 13 weeks.

Chain of TrkA (P04629 33-796): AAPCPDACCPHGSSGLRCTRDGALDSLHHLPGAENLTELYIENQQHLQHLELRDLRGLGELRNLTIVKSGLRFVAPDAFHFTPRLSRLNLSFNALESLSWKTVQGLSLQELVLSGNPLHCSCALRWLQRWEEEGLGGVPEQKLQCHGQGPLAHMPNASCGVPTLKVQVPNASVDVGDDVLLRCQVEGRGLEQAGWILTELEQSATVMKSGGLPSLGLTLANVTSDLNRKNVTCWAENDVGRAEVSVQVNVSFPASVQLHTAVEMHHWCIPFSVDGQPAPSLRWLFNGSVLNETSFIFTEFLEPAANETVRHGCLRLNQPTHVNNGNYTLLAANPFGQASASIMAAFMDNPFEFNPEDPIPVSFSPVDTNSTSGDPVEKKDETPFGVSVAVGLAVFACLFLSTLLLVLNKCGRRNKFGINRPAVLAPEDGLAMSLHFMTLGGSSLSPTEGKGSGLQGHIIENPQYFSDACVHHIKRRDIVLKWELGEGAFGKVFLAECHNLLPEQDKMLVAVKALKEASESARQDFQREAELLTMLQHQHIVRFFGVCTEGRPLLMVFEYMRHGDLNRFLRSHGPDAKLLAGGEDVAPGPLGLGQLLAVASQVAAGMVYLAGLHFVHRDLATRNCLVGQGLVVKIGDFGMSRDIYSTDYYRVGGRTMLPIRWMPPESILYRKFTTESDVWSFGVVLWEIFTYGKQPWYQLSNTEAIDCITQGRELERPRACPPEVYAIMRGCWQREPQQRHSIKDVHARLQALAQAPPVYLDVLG

On to “oxazolidindionic conjugate of K252a with PEG (1892 MW) [test item]”, for which the accumulation entry in data set [1] (daily dermal administration over 13 weeks) is on record as “no accumulation has occurred”. Moreover, in data set [1] (rat plasma sample analyses), the “absorption through the dermal route” value is given as “only minimally absorbed”. For the same substance, the adverse effects result in data set [2] (0.5, 2.5 and 5 mg/animal/day) is given as “No adverse effects were seen at any of the dose levels”. In data set [2] (setting [3]), the clinical signs entry is “no treatment-related clinical signs were observed” and the mortality result is on record as “No treatment-related mortality occurred”. In data set [2] (13 weeks dermal), the “absolute and relative organ weight” value is “no changes in absolute and relative organ weight of toxicological significance were observed”; the body weight entry is “No relevant differences in body weight were recorded”; the food consumption entry is reported as “comparable to controls”; the “haematology and clinical chemistry” value is given as “no changes of toxicological significance were recorded”. For the same substance, the terminal body weight result in data set [2] (13 weeks dermal) was “comparable between control and treated groups”. In addition, the “No Observed Adverse Effect Level (NOAEL)” value in data set [2] (daily dermal administration to rabbits, 13 weeks) turned out to be 5 mg/animal/day. Moreover, the “irritation of treated sites (macroscopic observations)” value in data set [2] (daily dermal, 13 weeks) is listed as “No signs of irritation were observed”. Besides, the ophthalmic examination entry in data set [2] (end of the treatment period) was “no treatment-related lesions were detected”. Besides, the IC50 – broadly, the concentration at which inhibition is half-maximal – at TrkA came to 202 nM. Further, in the data set with rat (2000 mg/kg single dermal dose), the “abnormalities in the treated site” value is on record as “No abnormalities were observed in the treated site”, the clinical signs entry is reported as “no clinical signs were observed” and the “internal abnormalities at necropsy” value is reported as “No internal abnormalities were found at necropsy”. Further, in the data set on rat (2000 mg/kg single dermal dose, 14 day observation), the mortality entry was “No mortality occurred”. The “changes in body weight” value in the data set on rat (2000 mg/kg single dermal dose, end of study) was “within the expected range”. In addition, the toxic effect result in the data set on rat (dermal exposure over 24 hours at 2000 mg/kg) is listed as “no toxic effect”. For the same substance, in the data set on rat (single dermal dose, 24 hour exposure, rat), the LD50 entry is “greater than 2000 mg/kg”.
